Publication PMC3763534

Tests used:
Details in all cases: 20 mM Hepes pH 7.5, 100 mM KAc, 200 mM KCl, 3 mM MgCl2, 1 mM TCEP; 37 C, 20 min; RNA folded in 20 mM Hepes pH 7.5, 150 mM KCl, 5 mM MgCl2
[1] = tested on: 40S ribosomal subunit (HeLa or RRL, used interchangeably) (Homo sapiens or rabbit); experiment: EMSA
[2] = tested on: 40S ribosomal subunit (HeLa) (Homo sapiens (HeLa)); experiment: EMSA
[3] = tested on: 40S ribosomal subunit (RRL) (rabbit (reticulocyte lysate)); experiment: EMSA
[4] = tested on: 80S ribosome; experiment: EMSA
[5] = tested on: 40S ribosomal subunit (HeLa or RRL, used interchangeably) (Homo sapiens or rabbit); experiment: filter binding
[6] = tested on: 40S ribosomal subunit (HeLa or RRL, used interchangeably);eIF3 (preparation not specified) (Homo sapiens or rabbit;Homo sapiens?); experiment: filter binding
[7] = tested on: eIF3 (preparation not specified); experiment: filter binding

AGGUUGGGGUAAACACUCCGGCCUCUUAAGCCAUUUCCUGUUUUUUUUUUUUUUUUUUUUUUUUUUUUCUUUUUUUUUUUCUUUCCUUUCCUUCUUUUUUUCCUUUCUUUUUCCCUUCUUUAAUGGUGGCUCCAUCUUAGCCCUAGUCACGGCUAGCUGUGAAAGGUCCGUGAGCCGCAUGACUGCAGAGAGUGCUGAUACUGGCCUCUCUGCAGAUCAUGU [HCV 3'UTR genotype 1a]
Kd [1]: 6.7 nM

HCV 3'UTR
Kd [2]: 1.8 nM
Kd [3]: 5.4 nM
Kd [4]: 11.8 nM
Kd [5]: 1.8 nM
Kd [6]: 1 nM
Kd [7]: 8.9 nM

HCV 3'UTR genotype 1b
Kd [1]: 4.7 nM

HCV 3'UTR genotype 2a
Kd [1]: 3.5 nM

HCV 3'UTR genotype 3a
Kd [1]: 3.7 nM

UAGACGAGCGGCCCUAAACAACACUCCAUAACAUUUUUUUUUUUUUUUUUUUUUUUUUUUUUUUUUUUUUUUUUUUUUUUUUUUUUUUUUUUUUUUCUUUCUUAUCUGUCUAUCCCUUAGACUCCUUCUUUGGUGGCUCCAUCUUAGCCCUAGUCACGGCUAGCUGUGAAAGGUCCGUGAGCCGCAUGACUGCAGAGAGUGCUGAUACUGGCCUCUCUGCAGUUCAUGU [HCV 3'UTR genotype 6b]
Kd [1]: 6.7 nM
